B1: FANCE (parent)
chain: AQVLMLGQILELPWKEETFLVLQS

Variants of: B1
Test: protein stability index of a GFP-peptide fusion (GPS, HEK-293T) (PSI 1-6); higher = more stable
Conditions: c terminus: a fixed tail appended
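Also: lentivirally expressed fusions sorted by FACS into six bins by GFP to DsRed ratio, PSI derived from sequencing read proportions per bin multiplied by bin number.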

Variant	protein stability index
AQVLMLGQFLELPWKEETFLVLQS [I9F]	3.22
AQVLMLGQHLELPWKEETFLVLQS [I9H]	2.26
AQVLMLGQCLELPWKEETFLVLQS [I9C]	2.36
AQVLMLGQQLELPWKEETFLVLQS [I9Q]	1.68
AQVLMLGQELELPWKEETFLVLQS [I9E]	1.63
AQVLMLGQTLELPWKEETFLVLQS [I9T]	2.91
AQVLMLGQMLELPWKEETFLVLQS [I9M]	2.82
AQVLMLGQRLELPWKEETFLVLQS [I9R]	2.46
AQVLMLGQILELPFKEETFLVLQS [W14F]	2.72
AQVLMLGQILELPGKEETFLVLQS [W14G]	2.07
AQVLMLGQILELPTKEETFLVLQS [W14T]	2.08
AQVLMLGQILELPYKEETFLVLQS [W14Y]	2.51
AQVLMLGQILELPDKEETFLVLQS [W14D]	1.58
AQVLMLGQILELPSKEETFLVLQS [W14S]	3.07
AQVLMLGQILELPIKEETFLVLQS [W14I]	2.95
AQVLMLGQILELPHKEETFLVLQS [W14H]	3.52
AQVLMLGQILELPNKEETFLVLQS [W14N]	3.44
AQVNMLGQILELPWKEETFLVLQS [L4N]	2.04
AQVEMLGQILELPWKEETFLVLQS [L4E]	3.28
AQVMMLGQILELPWKEETFLVLQS [L4M]	3.29
AQVPMLGQILELPWKEETFLVLQS [L4P]	2.18
AQVKMLGQILELPWKEETFLVLQS [L4K]	2.13
AQVGMLGQILELPWKEETFLVLQS [L4G]	2.25
AQVHMLGQILELPWKEETFLVLQS [L4H]	1.66

Variant	protein stability index
AQVTMLGQILELPWKEETFLVLQS [L4T]	2.7
ASVLMLGQILELPWKEETFLVLQS [Q2S]	2.87
AYVLMLGQILELPWKEETFLVLQS [Q2Y]	1.82
AEVLMLGQILELPWKEETFLVLQS [Q2E]	2.48
AFVLMLGQILELPWKEETFLVLQS [Q2F]	1.72
ANVLMLGQILELPWKEETFLVLQS [Q2N]	3.14
ATVLMLGQILELPWKEETFLVLQS [Q2T]	3.45
AAVLMLGQILELPWKEETFLVLQS [Q2A]	2.05
AKVLMLGQILELPWKEETFLVLQS [Q2K]	2.02
AQVLMLGQILELPWKEETFLVLGS [Q23G]	2.42
AQVLMLGQILELPWKEETFLVLAS [Q23A]	3.11
AQVLMLGQILELPWKEETFLVLYS [Q23Y]	3.54
AQVLMLGQILELPWKEETFLVLTS [Q23T]	2.41
AQVLMLGQILELPWKEETFLVLFS [Q23F]	1.91
AQVLMLGQILELPWKEETFLVLWS [Q23W]	3.42
AQVLMLGQILELPWKEETFLVLNS [Q23N]	2.44
AQVLMLGQILELPWKEETFLVLMS [Q23M]	2.95
AQVLMLGQILELPWKEETFLVLDS [Q23D]	1.78
AQVLMLGQILELNWKEETFLVLQS [P13N]	3.19
AQVLMLGQILELLWKEETFLVLQS [P13L]	2.2
AQVLMLGQILELIWKEETFLVLQS [P13I]	2.77
AQVLMLGQILELDWKEETFLVLQS [P13D]	2.95
AQVLMLGQILELWWKEETFLVLQS [P13W]	3.76
AQVLMLGQILELQWKEETFLVLQS [P13Q]	2.39

Variant	protein stability index
AQVLMTGQILELPWKEETFLVLQS [L6T]	2.23
AQVLMIGQILELPWKEETFLVLQS [L6I]	3.28
AQVLMDGQILELPWKEETFLVLQS [L6D]	2.3
AQVLMFGQILELPWKEETFLVLQS [L6F]	2.61
AQVLMHGQILELPWKEETFLVLQS [L6H]	3.74
AQVLMEGQILELPWKEETFLVLQS [L6E]	1.44
AQVLMQGQILELPWKEETFLVLQS [L6Q]	1.63
AQVLMPGQILELPWKEETFLVLQS [L6P]	1.53
AQVLMAGQILELPWKEETFLVLQS [L6A]	1.48
AQVLMSGQILELPWKEETFLVLQS [L6S]	2.7
AQVLMYGQILELPWKEETFLVLQS [L6Y]	3.4
AQVLMLGFILELPWKEETFLVLQS [Q8F]	2.51
AQVLMLGHILELPWKEETFLVLQS [Q8H]	2.57
AQVLMLGVILELPWKEETFLVLQS [Q8V]	3.43
AQVLMLGMILELPWKEETFLVLQS [Q8M]	2.39
AQVLMLGWILELPWKEETFLVLQS [Q8W]	2.25
AQVLMLGEILELPWKEETFLVLQS [Q8E]	1.35
AQVLMLGQILELPWKEETTLVLQS [F19T]	1.56
AQVLMLGQILELPWKEETALVLQS [F19A]	1.77
AQVLMLGQILELPWKEETMLVLQS [F19M]	2.68
AQVLMLGQILELPWKEETCLVLQS [F19C]	1.54
AQVLMLGQILELPWKEETNLVLQS [F19N]	2.02
AQVLMLGQILELPWKEETKLVLQS [F19K]	1.53
AQVLMLGQILELPWKEETWLVLQS [F19W]	1.88

Variant	protein stability index
AQVLMLGQILELPWKEETDLVLQS [F19D]	2.53
AQVLMLGQILYLPWKEETFLVLQS [E11Y]	3.17
AQVLMLGQILLLPWKEETFLVLQS [E11L]	1.81
AQVLMLGQILHLPWKEETFLVLQS [E11H]	1.11
AQVLMLGQILCLPWKEETFLVLQS [E11C]	5.4
AQVLMLGQILPLPWKEETFLVLQS [E11P]	3.01
AQVLMLGQILILPWKEETFLVLQS [E11I]	1.47
AQVLMLGQILEDPWKEETFLVLQS [L12D]	2.26
AQVLMLGQILEYPWKEETFLVLQS [L12Y]	2.6
AQVLMLGQILETPWKEETFLVLQS [L12T]	2.91
AQVLMLGQILEQPWKEETFLVLQS [L12Q]	2.95
AQVLMLGQILEGPWKEETFLVLQS [L12G]	3.1
AQVLMLGQILEHPWKEETFLVLQS [L12H]	2.4
AQVLMLGQILECPWKEETFLVLQS [L12C]	3.49
AQVLMLGQIEELPWKEETFLVLQS [L10E]	1.94
AQVLMLGQIYELPWKEETFLVLQS [L10Y]	4.15
AQVLMLGQIDELPWKEETFLVLQS [L10D]	1.78
AQVLMLGQIPELPWKEETFLVLQS [L10P]	2.35
AQVLDLGQILELPWKEETFLVLQS [M5D]	1.95
AQVLTLGQILELPWKEETFLVLQS [M5T]	1.72
AQVLCLGQILELPWKEETFLVLQS [M5C]	1.57
AQVLELGQILELPWKEETFLVLQS [M5E]	1.79

From the supplement of paper PMC10567573
